Test results reported in publication PMC7442826 (2020).

B1: Rab10_(1-175) (human Rab10 G-domain) (domain or fragment)
chain: MAKKTYDLLFKLLLIGDSGVGKTCVLFRFSDDAFNTTFISTIGIDFKIKTVELQGKKIKLQIWDTAGQERFHTITTSYYRGAMGIMLVYDITNGKSFENISKWLRNIDEHANEDVERMLLGNKCDMDDKRVVPKGKGEQIAREHGIRFFETSAKANINIEKAFLTLAEDILRKTP
B2: EHBP1 bMERB domain (bMERB_(1060-1212), full-length bMERB domain) (domain or fragment)
chain: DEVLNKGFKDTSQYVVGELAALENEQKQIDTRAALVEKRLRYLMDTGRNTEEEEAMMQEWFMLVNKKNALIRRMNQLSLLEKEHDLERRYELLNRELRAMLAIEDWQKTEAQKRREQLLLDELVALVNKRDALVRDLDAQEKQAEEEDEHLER
B3: Cy3 labeled EHBP1 CH domain (domain or fragment)
chain: GRKPNASQSLLVWCKEVTKNYRGVKITNFTTSWRNGLSFCAILHHFRPDLIDYKSLNPQDIKENNKKAYDGFASIGISRLLEPSDMVLLAIPDKLTVMTYLYQIRAHFSGQ
modifications: Cy3 on the N-terminus
B4: EHBP1 CH (calponin homology) domain (domain or fragment)
chain: B3 chain
B5: Rab8a_(1-176) (human Rab8a G-domain) (domain or fragment)
chain: MAKTYDYLFKLLLIGDSGVGKTCVLFRFSEDAFNSTFISTIGIDFKIRTIELDGKRIKLQIWDTAGQERFRTITTAYYRGAMGIMLVYDITNEKSFDNIRNWIRNIEEHASADVEKMILGNKCDVNDKRQVSKERGEKLALDYGIKFMETSAKANINVENAFFTLARDIKAKMDKK

How the values were obtained:
[1] = target: B2; test: ITC
[2] = target: EHBP1 CH domain Q542A (human, UniProt Q8NDI1-1 440-550, Q542 to alanine); test: ITC
Chain of EHBP1 CH domain Q542A (Q8NDI1 1060-1212, stated change not applied): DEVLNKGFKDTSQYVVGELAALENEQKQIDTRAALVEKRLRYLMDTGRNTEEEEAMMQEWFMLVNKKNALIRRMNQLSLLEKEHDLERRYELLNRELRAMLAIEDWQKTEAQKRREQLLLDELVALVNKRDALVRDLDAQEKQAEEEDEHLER

[3] = target: EHBP1 CH domain Y541A (human, UniProt Q8NDI1-1 440-550, Y541 to alanine); test: ITC
Chain of EHBP1 CH domain Y541A (Q8NDI1 1060-1212, stated change not applied): as above

[4] = target: EHBP1 CH domain M537A (human, UniProt Q8NDI1-1 440-550, M537 to alanine); test: ITC
Chain of EHBP1 CH domain M537A (Q8NDI1 1060-1212, stated change not applied): as above

[5] = target: EHBP1 CH domain D532A (human, UniProt Q8NDI1-1 440-550, D532 to alanine); test: ITC
Chain of EHBP1 CH domain D532A (Q8NDI1 1060-1212, stated change not applied): as above

[6] = target: Rab8a_(1-176_T72E) (phosphomimetic Rab8a) (human, UniProt P61006 1-176, T72E); test: ITC
[7] = target: B2; test: displacement by GppNHp Rab8a
[8] = target: EHBP1 full-length bMERB domain M1103A (human, UniProt Q8NDI1-1 1060-1212, M1103 to alanine); test: ITC
Chain of EHBP1 full-length bMERB domain M1103A (Q8NDI1 1060-1212 M1103A): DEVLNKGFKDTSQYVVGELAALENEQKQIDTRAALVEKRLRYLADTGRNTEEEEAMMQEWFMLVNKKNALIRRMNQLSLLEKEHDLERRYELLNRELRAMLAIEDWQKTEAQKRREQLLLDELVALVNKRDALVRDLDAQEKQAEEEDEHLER

[9] = target: EHBP1 full-length bMERB domain M1116A (human, UniProt Q8NDI1-1 1060-1212, M1116A); test: ITC
Chain of EHBP1 full-length bMERB domain M1116A (Q8NDI1 1060-1212 M1116A): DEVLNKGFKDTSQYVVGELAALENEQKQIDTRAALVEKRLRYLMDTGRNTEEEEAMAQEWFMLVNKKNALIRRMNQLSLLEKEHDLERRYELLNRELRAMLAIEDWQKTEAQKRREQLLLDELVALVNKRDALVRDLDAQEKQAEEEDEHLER

[10] = target: EHBP1 bMERB domain L1179S (human, UniProt Q8NDI1-1 1060-1212, L1179S); test: ITC; GppNHp
Chain of EHBP1 bMERB domain L1179S (Q8NDI1 1060-1212 L1179S): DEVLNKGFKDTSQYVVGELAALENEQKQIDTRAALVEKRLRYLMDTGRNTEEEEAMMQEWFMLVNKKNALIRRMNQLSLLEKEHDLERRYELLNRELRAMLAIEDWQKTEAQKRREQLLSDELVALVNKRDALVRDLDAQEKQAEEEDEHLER

[11] = target: EHBP1 bMERB domain N1187A (human, UniProt Q8NDI1-1 1060-1212, N1187A); test: ITC; GppNHp
Chain of EHBP1 bMERB domain N1187A (Q8NDI1 1060-1212 N1187A): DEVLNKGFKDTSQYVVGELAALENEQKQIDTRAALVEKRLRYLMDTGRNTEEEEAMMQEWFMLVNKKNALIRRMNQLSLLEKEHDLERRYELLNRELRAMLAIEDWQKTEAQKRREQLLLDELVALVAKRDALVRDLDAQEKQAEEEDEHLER

[12] = target: EHBP1 bMERB domain L1156S (human, UniProt Q8NDI1-1 1060-1212, L1156S); test: ITC; GppNHp
Chain of EHBP1 bMERB domain L1156S (Q8NDI1 1060-1212 L1156S): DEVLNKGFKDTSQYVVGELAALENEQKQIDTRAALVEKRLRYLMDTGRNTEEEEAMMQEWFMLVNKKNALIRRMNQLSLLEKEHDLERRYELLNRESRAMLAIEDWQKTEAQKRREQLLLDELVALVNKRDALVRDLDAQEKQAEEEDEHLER

[13] = target: EHBP1 bMERB domain R1189A (human, UniProt Q8NDI1-1 1060-1212, R1189A); test: ITC; GppNHp
Chain of EHBP1 bMERB domain R1189A (Q8NDI1 1060-1212 R1189A): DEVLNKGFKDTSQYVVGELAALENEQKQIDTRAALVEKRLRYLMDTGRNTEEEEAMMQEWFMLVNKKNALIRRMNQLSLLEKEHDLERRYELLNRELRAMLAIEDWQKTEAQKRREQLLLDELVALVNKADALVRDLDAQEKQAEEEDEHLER

[14] = target: EHBP1 bMERB domain L1182S (human, UniProt Q8NDI1-1 1060-1212, L1182S); test: ITC; GppNHp
Chain of EHBP1 bMERB domain L1182S (Q8NDI1 1060-1212 L1182S): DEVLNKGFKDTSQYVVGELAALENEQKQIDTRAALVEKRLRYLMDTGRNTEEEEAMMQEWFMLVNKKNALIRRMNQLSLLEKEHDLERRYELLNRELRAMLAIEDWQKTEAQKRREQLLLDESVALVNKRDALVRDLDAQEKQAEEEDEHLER

[15] = target: EHBP1 bMERB domain Q1176A (human, UniProt Q8NDI1-1 1060-1212, Q1176A); test: ITC; GppNHp
Chain of EHBP1 bMERB domain Q1176A (Q8NDI1 1060-1212 Q1176A): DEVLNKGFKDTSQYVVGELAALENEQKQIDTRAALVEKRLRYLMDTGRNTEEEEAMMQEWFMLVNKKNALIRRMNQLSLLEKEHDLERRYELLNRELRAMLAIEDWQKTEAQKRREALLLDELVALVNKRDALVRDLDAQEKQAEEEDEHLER

Q: Which Kd [1] does the source give for B1 here?
A: The Kd was 0.32 µM.

Q: B2 was tested. Which Kd [2] did it give?
A: The Kd was 3.85 µM.

Q: And the Kd [3]?
A: The Kd was 5.65 µM.

Q: What about the Kd [4] of the same binder?
A: The Kd was 7.6 µM.

Q: And the Kd [5]?
A: The Kd was 43.5 µM.

Q: And the Kd [6]?
A: Its Kd is 0.4 µM.

Q: How did the koff [7] turn out when B3 was run?
A: Its koff is 165 s⁻¹.

Q: What does the source list for B4?
A: Kd [8]: 34.7 µM; Kd [9]: 15.8 µM

Q: Which results are given for B5?
A: Kd [10]: 3.23 µM; Kd [11]: 1.5 µM; Kd [12]: 14.3 µM; Kd [13]: 6 µM; Kd [14]: 3.04 µM; Kd [15]: 0.33 µM
